In the supplement of paper PMC9876800:

System: peptide library, one residue held at a place counted from the S/T acceptor
Test: relative phosphorylation of the sub-library (ratio to the mean residue at this position); Pediculus humanus corporis; higher = residue favoured
In short: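 Relative sub-library phosphorylation is a ratio to the mean residue at the same position. Purified recombinant kinases were incubated under kinase-specific conditions with biotinylated degenerate peptide sub-libraries, each fixing one residue at one position around a central Ser/Thr, using 50 μM peptide and 50 μM ATP spiked with γ-32P-ATP for 90 min. Spots captured on streptavidin membranes were phosphorimaged and quantified by densitometry.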

PINK1, construct: aa126-end, sequence (E0W1I1 126-575, looked up): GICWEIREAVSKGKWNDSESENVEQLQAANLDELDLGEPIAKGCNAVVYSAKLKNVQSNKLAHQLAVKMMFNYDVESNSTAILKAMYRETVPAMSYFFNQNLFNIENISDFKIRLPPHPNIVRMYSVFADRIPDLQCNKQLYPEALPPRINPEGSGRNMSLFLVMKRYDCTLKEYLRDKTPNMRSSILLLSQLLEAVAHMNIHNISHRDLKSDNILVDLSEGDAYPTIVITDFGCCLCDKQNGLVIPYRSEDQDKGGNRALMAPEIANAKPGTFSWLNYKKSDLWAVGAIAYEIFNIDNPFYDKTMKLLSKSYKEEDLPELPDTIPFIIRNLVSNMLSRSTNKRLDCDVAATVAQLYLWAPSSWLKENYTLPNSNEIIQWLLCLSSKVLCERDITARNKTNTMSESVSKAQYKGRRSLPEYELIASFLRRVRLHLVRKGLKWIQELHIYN

PINK1, construct: aa126-end (from UniProt E0W1I1)
relative phosphorylation
Settings | at +1 | at +2 | at +3 | at +4 | at -1 | at -2 | at -3 | at -4 | at -5
A fixed | 0.566 | 1.09 | 0.757 | 0.761 | 1.01 | 0.871 | 0.867 | 0.921 | 1.04
D fixed | 0.454 | 0.704 | 0.585 | 0.547 | 0.982 | 0.416 | 1.11 | 1.49 | 1.67
E fixed | 0.292 | 0.655 | 0.509 | 0.54 | 1.22 | 0.781 | 0.81 | 1.81 | 1.48
F fixed | 0.496 | 1.06 | 1.11 | 0.954 | 0.612 | 1.25 | 1.43 | 1.01 | 1.21
G fixed | 1.94 | 0.875 | 0.873 | 1.02 | 0.812 | 0.416 | 0.579 | 0.946 | 0.806
H fixed | 0.954 | 1.11 | 1.15 | 1.04 | 0.945 | 0.84 | 0.964 | 1.25 | 1.09
I fixed | 0.55 | 0.712 | 0.657 | 0.789 | 0.604 | 1.55 | 0.774 | 0.696 | 0.863
K fixed | 1.59 | 1 | 1.41 | 1.4 | 0.952 | 0.828 | 0.387 | 0.596 | 0.754
L fixed | 0.517 | 0.76 | 0.676 | 0.802 | 1.14 | 0.907 | 2.14 | 0.739 | 0.889
M fixed | 0.626 | 0.982 | 0.832 | 0.902 | 1.23 | 2.75 | 1.57 | 0.804 | 0.923
N fixed | 2.33 | 1.02 | 1.17 | 0.858 | 1.52 | 0.589 | 0.694 | 1.18 | 0.888
P fixed | 2.36 | 1.41 | 1.06 | 1.08 | 0.419 | 0.316 | 0.429 | 0.63 | 0.878
Q fixed | 0.786 | 1 | 0.957 | 0.983 | 1.72 | 1.06 | 0.609 | 0.831 | 0.733
R fixed | 2.05 | 1.57 | 2.21 | 2.15 | 1.58 | 1.02 | 0.815 | 0.676 | 0.75
V fixed | 0.474 | 0.805 | 0.737 | 0.692 | 0.716 | 0.838 | 0.441 | 0.595 | 0.806
W fixed | 0.455 | 1.03 | 1.14 | 1.47 | 0.772 | 1.55 | 1.74 | 1.48 | 1.17
Y fixed | 0.548 | 1.2 | 1.17 | 1.01 | 0.775 | 1.03 | 1.65 | 1.35 | 1.04
pThr fixed | 0.442 | 0.775 | 0.7 | 0.556 | 0.306 | 0.5 | 0.537 | 1.01 | 1.67
pTyr fixed | 0.458 | 1.66 | 0.834 | 0.71 | 1.09 | 1.06 | 3.15 | 1.66 | 1.26
